Data set [1] deals with S. aureus. Briefly: In vitro antimicrobial activity, co-incubation with S. aureus in 5% LB and CFU count. The data set is classed as cell-based, Staphylococcus aureus. Particulars: for direct antimicrobial activity: S. aureus, similar doses and conditions as full-length MMP-12; for antimicrobial activity after heat denaturation: heat denaturation / heat inactivation; for antimicrobial activity after enzymatic inhibition: inhibited with hydroxamic acid, an MMP inhibitor. How it is done: S. aureus co-culture was incubated for 60 minutes with doses of MMP-12 C-terminal. Aliquots of cultures were diluted in PBS at 1:10 and 1:100 dilution. Dilutions were plated on LB agar plates for 18 hour incubation at 37° C. Controls consisted of column fractions that lacked MMP-12 carboxy terminal determined by immunoblotting.
(§1) MMP-12's mechanism of action as a host defense protein was investigated. To test for direct activity, functional full-length recombinant human MMP-12 was incubated with S. aureus in a 5% LB culture. […] MMP-12 enzymatic activity was not required for this antimicrobial effect.
(§2) Mid-log phase bacteria (10^5) were incubated in the absence or presence of purified MMP-12 C-terminal in a total volume of 100 μl of 10 mmol/L sodium phosphate containing 5% (vol/vol) TSB at 37° C. for 1 hour. Serial dilutions were then spread on agarose plates and the number of CFUs were determined after overnight incubation.

Data set [2] concerns K. pneumonia. Briefly: In vitro antimicrobial activity against K. pneumonia. The data set is classed as cell-based. As to conditions: compared with S. aureus dose response. The method, then:
as §1
Recombinant full length human MMP-12 was co-incubated with S. aureus and K. pneumonia for 2 hours. Dose response curve was for recombinant murine carboxy terminal domain against S. aureus and E. coli after one-hour co-incubation.

Data set [3] deals with E. coli (K1). The experiment in a line: In vitro antimicrobial activity against E. coli (K1). The data set is classed as cell-based. How it is done:
as §2

B1: MMP-12: functional full-length recombinant human MMP-12 (macrophage elastase), Genbank NP_002417 (protein, listed as Homo sapiens)
chain: MKFLLILLLQATASGALPLNSSTSLEKNNVLFGERYLEKFYGLEINKLPVTKMKYSGNLMKEKIQEMQHFLGLKVTGQLDTSTLEMMHAPRCGVPDLHHFREMPGGPVWRKHYITYRINNYTPDMNREDVDYAIRKAFQVWSNVTPLKFSKINTGMADILVVFARGAHGDFHAFDGKGGILAHAFGPGSGIGGDAHFDEDEFWTTHSGGTNLFLTAVHEIGHSLGLGHSSDPKAVMFPTYKYVDINTFRLSADDIRGIQSLYGDPKENQRLPNPDNSEPALCDPNLSFDAVTTVGNKIFFFKDRFFWLKVSERPKTSVNLISSLWPTLPSGIEAAYEIEARNQVFLFKDDKYWLISNLRPEPNYPKSIHSFGFPNFVKKIDAAVFNPRFYRTYFFVDNQYWRYDERRQMMDPGYPKLITKNFQGIGPKIDAVFYSKNKYYYFFQGSNQFEYDFLLQRITKTLKSNSWFGC
With B1, the bacterial kill in data set [1] (16 μg/ml, 2-hour incubation, 5% LB culture) was determined as 90%. The direct antimicrobial activity result in data set [1] (5% LB culture) is listed as “antimicrobial activity”; in data set [1] (5% LB culture, listed as pro-MMP-12), “direct anti-microbial effect”. Moreover, the “antimicrobial activity after heat denaturation” value is reported as “Neither the denatured MMP-12 or enzymatically inhibited enzyme lost its antimicrobial function” in data set [1] and “did not lose its anti-microbial activity” in data set [1] (listed as Pro-MMP-12). In addition, the “antimicrobial activity after enzymatic inhibition” value is reported as “Neither the denatured MMP-12 or enzymatically inhibited enzyme lost its antimicrobial function” in data set [1] and “did not lose its anti-microbial activity” in data set [1] (listed as Pro-MMP-12). Moreover, the “antimicrobial activity against K. pneumonia” value in data set [2] is reported as “antimicrobial activity”. Moreover, in data set [3], the “antimicrobial activity against E. coli (K1)” value is reported as “antimicrobial activity”.

B2: MMP-2: commercially available full length pro-MMP 2 (protein, UniProt P08253 30-660, looked up)
pro-form: APSPIIKFPGDVAPKTDKELAVQYLNTFYGCPKESCNLFVLKDTLKKMQKFFGLPQTGDLDQNTIETMRKPRCGNPDVANYNFFPRKPKWDKNQITYRIIGYTPDLDPETVDDAFARAFQVWSDVTPLRFSRIHDGEADIMINFGRWEHGDGYPFDGKDGLLAHAFAPGTGVGGDSHFDDDELWTLGEGQVVRVKYGNADGEYCKFPFLFNGKEYNSCTDTGRSDGFLWCSTTYNFEKDGKYGFCPHEALFTMGGNAEGQPCKFPFRFQGTSYDSCTTEGRTDGYRWCGTTEDYDRDKKYGFCPETAMSTVGGNSEGAPCVFPFTFLGNKYESCTSAGRSDGKMWCATTANYDDDRKWGFCPDQGYSLFLVAAHEFGHAMGLEHSQDPGALMAPIYTYTKNFRLSQDDIKGIQELYGASPDIDLGTGPTPTLGPVTPEICKQDIVFDGIAQIRGEIFFFKDRFIWRTVTPRDKPMGPLLVATFWPELPEKIDAVYEAPQEEKAVFFAGNEYWIYSASTLERGYPKPLTSLGLPPDVQRVDAAFNWSKNKKTYIFAGDKFWRYNEVKKKMDPGFPKLIADAWNAIPDNLDAVVDLQGGGHSYFFKGAYYLKLENQSLKSVKFGSIKSDWLGC
modifications: pro-form
On to B2, for which the direct antimicrobial activity entry in data set [1] (5% LB culture) is “did not demonstrate this direct antimicrobial activity”.

B3: MMP-9: commercially available full length pro-MMP 9 (protein, UniProt P14780 20-707, looked up)
pro-form: APRQRQSTLVLFPGDLRTNLTDRQLAEEYLYRYGYTRVAEMRGESKSLGPALLLLQKQLSLPETGELDSATLKAMRTPRCGVPDLGRFQTFEGDLKWHHHNITYWIQNYSEDLPRAVIDDAFARAFALWSAVTPLTFTRVYSRDADIVIQFGVAEHGDGYPFDGKDGLLAHAFPPGPGIQGDAHFDDDELWSLGKGVVVPTRFGNADGAACHFPFIFEGRSYSACTTDGRSDGLPWCSTTANYDTDDRFGFCPSERLYTQDGNADGKPCQFPFIFQGQSYSACTTDGRSDGYRWCATTANYDRDKLFGFCPTRADSTVMGGNSAGELCVFPFTFLGKEYSTCTSEGRGDGRLWCATTSNFDSDKKWGFCPDQGYSLFLVAAHEFGHALGLDHSSVPEALMYPMYRFTEGPPLHKDDVNGIRHLYGPRPEPEPRPPTTTTPQPTAPPTVCPTGPPTVHPSERPTAGPTGPPSAGPTGPPTAGPSTATTVPLSPVDDACNVNIFDAIAEIGNQLYLFKDGKYWRFSEGRGSRPQGPFLIADKWPALPRKLDSVFEERLSKKLFFFSGRQVWVYTGASVLGPRRLDKLGLGADVAQVTGALRSGRGKMLLFSGRRLWRFDVKAQMVDPRSASEVDRMFPGVPLDTHDVFQYREKAYFCQDRFYWRVSSRSELNQVDQVGYVTYDILQCPED
modifications: pro-form
Regarding B3, in data set [1] (5% LB culture), the direct antimicrobial activity entry is recorded as “did not demonstrate this direct antimicrobial activity”.

For the origin of these results see patent publication US20030235577A1, “Methods and compositions for preventing and treating microbial infections” (priority 2002, published 2003).
